We go through one substance from paper doi:10.1101/633420.

This assay deals with PRR (UniProt P10636). In words: fluorescence correlation spectroscopy.

A word on the Kd: it is the equilibrium constant for the complex coming apart. Lower therefore signals higher affinity.

tubulin, sequence (Q6B856 whole entry, looked up): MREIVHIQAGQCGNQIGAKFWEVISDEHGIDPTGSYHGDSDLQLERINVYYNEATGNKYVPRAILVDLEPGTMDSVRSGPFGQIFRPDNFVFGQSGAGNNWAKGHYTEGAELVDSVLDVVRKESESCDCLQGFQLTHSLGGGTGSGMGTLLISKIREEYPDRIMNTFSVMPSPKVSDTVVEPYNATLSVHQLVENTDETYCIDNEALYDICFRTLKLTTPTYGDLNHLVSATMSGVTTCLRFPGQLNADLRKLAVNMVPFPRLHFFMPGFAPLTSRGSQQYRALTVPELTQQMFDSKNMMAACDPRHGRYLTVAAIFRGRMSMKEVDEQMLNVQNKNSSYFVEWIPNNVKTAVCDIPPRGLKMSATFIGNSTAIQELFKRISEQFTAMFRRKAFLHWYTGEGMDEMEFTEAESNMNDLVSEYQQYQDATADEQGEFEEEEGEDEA
UniProt P10636, sequence (P10636 466-561): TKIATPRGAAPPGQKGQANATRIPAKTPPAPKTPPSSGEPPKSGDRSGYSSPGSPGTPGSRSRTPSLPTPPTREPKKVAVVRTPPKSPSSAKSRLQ

In the case of “tubulin (from UniProt Q6B856 1-445) (complex)”, the Kd turned out to be 900 nM and the stoichiometry N (tubulin dimers per PRR) is 2.
